From US8987192B2, “Potent and selective mediators of cholesterol efflux” (The Regents of the University of California, priority 2006, dated 2015) come the findings set out here.

“Also recorded” adds a separate entry of the source. Where no end group is shown, it is not given here. [ ]: non-standard residue; d: D form.

The assay addresses ABCA1 (Mus musculus, UniProt P41233). As to the kind of experiment: Cholesterol efflux from [3H]cholesterol-labeled ABCA1-expressing J774 mouse macrophages. Further details: to upregulate cellular ABCA1 protein; endogenous in cells; host or cells: J774 mouse macrophages. Type of assay: cell-based. Conditions: for ABCA1-dependent cholesterol efflux at 30 μg/ml: 30 μg/ml peptide; for capacity to stimulate cholesterol efflux at 3 μg/ml: 3 μg/ml lipid-free peptide, ABCA1-expressing macrophages; for efficiency of ABCA1 cholesterol efflux (concentration dependence): concentration dependence curves; for ABCA1-dependent cholesterol efflux: macrophages with vs without cAMP; for cholesterol efflux from macrophages not induced for ABCA1 (non-specific): no cAMP. As for the experimental part:
In some embodiments, a polypeptide known to mediate cholesterol efflux (e.g., helix 9/10 of Apo A-I) is used to screen for additional mediators of cholesterol efflux in a cell based assay. For example, cell lines in which cholesterol efflux can be enhanced using a cAMP analog that up-regulates ABCA1 protein expression (e.g., J774 macrophages) can conveniently be used to assess the ability of a polypeptide of the present invention to mediate cholesterol efflux. The cells are incubated with labeled cholesterol (e.g., [^3H]cholesterol) under conditions appropriate for cholesterol uptake by the cells. Thus, cAMP or cAMP analogs (e.g., CPT-cAMP) are incubated with the cells for a suitable time before the initiation of cellular cholesterol efflux, i.e., prior to contacting the cells with a test polypeptide. Measurement of labeled cholesterol appearing in the medium is used to determine the cholesterol efflux mediating activity of the test polypeptide.
J774 mouse macrophages labeled with [^3H]cholesterol were treated (20 h) with 22-hydroxycholesterol (10 μM)/cis-retinoic acid (10 μM) to upregulate cellular ABCA1 protein.
Mouse macrophages were labeled with [^3H]cholesterol and treated with a cAMP analog to induce ABCA1 expression. […] Km values were calculated using the Michaelis-Menton equation and GraphPad Prism4 software.
Inverted sequence peptides synthesized with all L-amino acids and all D-amino acids were tested for cholesterol efflux activity using ABCA1 expressing J774 macrophages.
Two peptide analogs were engineered; the first replacing glutamic acid residues (E) at position 8 and 15 with aspartic acid residues (D), i.e., E8, 15>D polypeptides, and the second, replacing E1, 7, 8, 15, 18, 19 with D, i.e., all D (Asp) polypeptide. Cholesterol efflux activity was determined using J774 macrophages treated with and without a cAMP analog to modulate ABCA1 expression.
The impact of the A12>L substitution was also tested for activity, which also expanded non-polar surface area.
1-palmitoyl-2-oleoyl-phosphatidylcholine (POPC) was used to evaluate the cholesterol efflux properties of a formulated polypeptide of the present invention. […] To test cholesterol efflux activity, J774 mouse macrophages were labeled with [^3H]cholesterol and treated with and without cAMP to modulate ABCA1 expression.

ABCA1, sequence (P41233 whole entry): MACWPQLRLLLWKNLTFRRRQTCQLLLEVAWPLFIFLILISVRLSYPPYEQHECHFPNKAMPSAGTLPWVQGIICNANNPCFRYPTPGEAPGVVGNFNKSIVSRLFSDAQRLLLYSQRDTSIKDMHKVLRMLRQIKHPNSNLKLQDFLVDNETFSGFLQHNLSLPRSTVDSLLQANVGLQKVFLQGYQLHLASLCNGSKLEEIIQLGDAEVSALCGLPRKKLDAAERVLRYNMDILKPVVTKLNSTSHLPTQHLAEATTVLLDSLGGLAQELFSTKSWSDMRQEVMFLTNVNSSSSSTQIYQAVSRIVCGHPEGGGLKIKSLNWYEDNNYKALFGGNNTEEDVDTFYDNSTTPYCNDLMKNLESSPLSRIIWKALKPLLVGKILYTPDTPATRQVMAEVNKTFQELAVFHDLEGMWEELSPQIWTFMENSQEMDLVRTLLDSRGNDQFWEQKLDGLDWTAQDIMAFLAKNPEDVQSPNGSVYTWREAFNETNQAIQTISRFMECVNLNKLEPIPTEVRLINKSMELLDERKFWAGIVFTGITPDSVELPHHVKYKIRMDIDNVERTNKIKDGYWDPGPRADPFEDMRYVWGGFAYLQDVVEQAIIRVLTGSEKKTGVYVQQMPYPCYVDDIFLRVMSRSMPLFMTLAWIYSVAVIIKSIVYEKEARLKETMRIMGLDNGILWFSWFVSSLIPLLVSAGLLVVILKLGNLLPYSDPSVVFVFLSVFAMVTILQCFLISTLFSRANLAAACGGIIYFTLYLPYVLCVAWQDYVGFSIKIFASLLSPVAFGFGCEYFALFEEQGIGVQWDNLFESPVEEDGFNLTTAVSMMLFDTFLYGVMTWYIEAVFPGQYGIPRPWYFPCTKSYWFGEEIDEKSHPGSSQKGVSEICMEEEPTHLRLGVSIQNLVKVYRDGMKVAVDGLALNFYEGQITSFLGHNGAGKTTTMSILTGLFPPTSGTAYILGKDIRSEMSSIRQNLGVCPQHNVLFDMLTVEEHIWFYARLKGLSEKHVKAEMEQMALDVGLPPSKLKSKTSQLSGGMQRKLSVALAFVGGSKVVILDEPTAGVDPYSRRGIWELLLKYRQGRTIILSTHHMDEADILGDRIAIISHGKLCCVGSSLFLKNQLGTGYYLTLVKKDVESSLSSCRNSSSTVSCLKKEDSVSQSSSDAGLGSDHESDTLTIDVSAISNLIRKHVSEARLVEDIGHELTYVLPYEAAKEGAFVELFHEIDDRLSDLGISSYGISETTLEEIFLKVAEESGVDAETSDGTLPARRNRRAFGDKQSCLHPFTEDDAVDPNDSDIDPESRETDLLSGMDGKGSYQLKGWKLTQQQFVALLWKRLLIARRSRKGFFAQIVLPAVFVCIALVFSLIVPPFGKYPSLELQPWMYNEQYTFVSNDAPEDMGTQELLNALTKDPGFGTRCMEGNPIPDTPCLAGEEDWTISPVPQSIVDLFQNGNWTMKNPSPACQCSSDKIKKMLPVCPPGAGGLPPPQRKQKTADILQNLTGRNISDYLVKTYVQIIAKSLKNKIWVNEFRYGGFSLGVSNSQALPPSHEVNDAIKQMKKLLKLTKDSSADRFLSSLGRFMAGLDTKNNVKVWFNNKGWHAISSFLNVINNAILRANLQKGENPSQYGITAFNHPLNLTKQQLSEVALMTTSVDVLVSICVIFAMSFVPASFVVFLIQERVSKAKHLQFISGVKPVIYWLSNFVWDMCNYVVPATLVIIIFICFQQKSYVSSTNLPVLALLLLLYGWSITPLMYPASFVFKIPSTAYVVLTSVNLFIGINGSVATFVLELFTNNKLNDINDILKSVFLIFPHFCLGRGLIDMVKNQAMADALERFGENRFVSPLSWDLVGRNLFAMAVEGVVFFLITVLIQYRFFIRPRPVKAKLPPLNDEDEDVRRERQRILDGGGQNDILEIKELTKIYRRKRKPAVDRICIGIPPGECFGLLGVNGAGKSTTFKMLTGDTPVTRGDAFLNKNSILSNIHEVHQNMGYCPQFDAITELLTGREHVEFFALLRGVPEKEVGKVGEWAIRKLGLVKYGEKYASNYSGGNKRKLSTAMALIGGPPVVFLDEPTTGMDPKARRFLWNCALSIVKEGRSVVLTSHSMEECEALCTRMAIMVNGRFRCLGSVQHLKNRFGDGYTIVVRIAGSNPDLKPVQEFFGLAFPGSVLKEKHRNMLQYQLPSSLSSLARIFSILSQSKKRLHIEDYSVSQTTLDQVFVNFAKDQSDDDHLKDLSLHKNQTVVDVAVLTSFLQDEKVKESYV

For the substance “SKLRALFEEAFERFAAFWEELKSRVE (inverted peptide, ATI-5261 in reverse order)”, the “ABCA1-dependent cholesterol efflux at 30 μg/ml” value is “stimulated cholesterol efflux in an ABCA1-dependent manner”.

In the case of “EVRSKLEEWFAAFREFFEEFLARL (amphipathic alpha-helix polypeptide core sequence selectively binds HDL, high-affinity ligand for ATP- binding cassette transporter A1 (ABCA1), ABCA1-lipid cholesterol efflux, ABCA1-stablization, anti-oxidant and anti-inflammatory activity) [24-mer]”, the “capacity to stimulate cholesterol efflux at 3 μg/ml” value (from here on “capacity”) is given as “retained high capacity to stimulate cholesterol efflux; also recorded: retained high activity”, the “efficiency of ABCA1 cholesterol efflux (concentration dependence)” value (shortened to “efficiency of ABCA1 cholesterol efflux”) is reported as “high efficience” and the ABCA1-dependent cholesterol efflux entry is recorded as “stimulated cholesterol efflux in an ABCA1-dependent manner”.

“E8, 15→Q8, 15: SEQ ID NO:5 with two glutamate residues replaced with glutamine (EVRSKLEQWFAAFRQFFEEFLARLKS; S1 amphipathic alpha-helix polypeptide core sequence selectively binds HDL, high-affinity ligand for ATP- binding cassette transporter A1 (ABCA1), ABCA1-lipid cholesterol efflux, ABCA1-stablization, anti-oxidant and anti-inflammatory activity)”: the “cholesterol efflux from macrophages not induced for ABCA1 (non-specific)” value is reported as “further augmented”.

Take “23-mer: SEQ ID NO:5 with three residues deleted from the C-terminal end (EVRSKLEEWFAAFREFFEEFLAR; S1 amphipathic alpha-helix polypeptide core sequence selectively binds HDL, high-affinity ligand for ATP- binding cassette transporter A1 (ABCA1), ABCA1-lipid cholesterol efflux, ABCA1-stablization, anti-oxidant and anti-inflammatory activity)”: the “capacity” value is reported as “weakly active”.

Take “R3, 14, 23→Q3, 14, 23: SEQ ID NO:5 with arginines 3, 14, 23 changed to glutamine (EVQSKLEEWFAAFQEFFEEFLAQLKS; S1 amphipathic alpha-helix polypeptide core sequence selectively binds HDL, high-affinity ligand for ATP- binding cassette transporter A1 (ABCA1), ABCA1-lipid cholesterol efflux, ABCA1-stablization, anti-oxidant and anti-inflammatory activity)”: the “efficiency of ABCA1 cholesterol efflux” value is given as “reduced efflux efficiency” and the ABCA1-dependent cholesterol efflux result is on record as “greatly reduced efflux capacity”.

Take “18-mer: SEQ ID NO:5 truncated from the C-terminal end to 18 residues (EVRSKLEEWFAAFREFFE; S1 amphipathic alpha-helix polypeptide core sequence selectively binds HDL, high-affinity ligand for ATP- binding cassette transporter A1 (ABCA1), ABCA1-lipid cholesterol efflux, ABCA1-stablization, anti-oxidant and anti-inflammatory activity)”: the “capacity” value was “weakly active”.

With “S4, 26>A: SEQ ID NO:4 with serine to alanine substitutions at positions 4 and 26 (EVRAKLEEWFAAFREFAEEFLARLKA; ATI-5261 amphipathic alpha-helix polypeptide core sequence selectively binds HDL, high-affinity ligand for ATP-binding cassette transporter A1 (ABCA1), ABCA1-lipid cholesterol efflux, ABCA1-stablization, anti-oxidant and anti- inflammatory activity)”, the ABCA1-dependent cholesterol efflux entry is listed as “retained ABCA1-dependent cholesterol efflux activity”.

Consider “EFRSKLEEWFAAFREFFEEFLARLKS (S2 amphipathic alpha-helix polypeptide core sequence selectively binds HDL, high-affinity ligand for ATP- binding cassette transporter A1 (ABCA1), ABCA1-lipid cholesterol efflux, ABCA1-stablization, anti-oxidant and anti-inflammatory activity) [SEQ ID NO:6]”, for which the “cholesterol efflux efficiency/potency on per molecule (molar) basis versus apolipoproteins” value (Km in molar units) was “activity similar to full-length Apo A-I, Apo E, and the C-terminal (CT) domain of Apo E”.

As for “R3>L: SEQ ID NO:4 polypeptides with arginine at position 3 replaced by leucine (EVLSKLEEWFAAFREFAEEFLARLKS; ATI-5261 amphipathic alpha-helix polypeptide core sequence selectively binds HDL, high-affinity ligand for ATP-binding cassette transporter A1 (ABCA1), ABCA1-lipid cholesterol efflux, ABCA1-stablization, anti-oxidant and anti- inflammatory activity)”, the ABCA1-dependent cholesterol efflux entry is “relatively high-levels of cholesterol efflux” and the “cholesterol efflux from macrophages not induced for ABCA1 (non-specific)” value is “low-levels of cholesterol efflux”.

In the case of “R3, 14, 23→K3, 14, 23: SEQ ID NO:5 with lysine in place of arginine at positions 3, 14 and 23 (EVKSKLEEWFAAFKEFFEEFLAKLKS; S1 amphipathic alpha-helix polypeptide core sequence selectively binds HDL, high-affinity ligand for ATP- binding cassette transporter A1 (ABCA1), ABCA1-lipid cholesterol efflux, ABCA1-stablization, anti-oxidant and anti-inflammatory activity)”, the ABCA1-dependent cholesterol efflux result is reported as “stimulated ABCA1 cholesterol efflux” and the “cholesterol efflux from macrophages not induced for ABCA1 (non-specific)” value is listed as “Low efflux”.

“SKLRALFEEAFERFAAFWEELKSRVE ([dS][dK][dL][dR][dA][dL][dF][dE][dE][dA][dF][dE][dR][dF][dA][dA][dF][dW][dE][dE][dL][dK][dS][dR][dV][dE])”: the ABCA1-dependent cholesterol efflux entry is listed as “stimulate ABCA1 cholesterol efflux in a ABCA1-dependent manner”.

As to “R3>F: SEQ ID NO:4 polypeptides with arginine at position 3 replaced by phenylalanine (EVFSKLEEWFAAFREFAEEFLARLKS; ATI-5261 amphipathic alpha-helix polypeptide core sequence selectively binds HDL, high-affinity ligand for ATP-binding cassette transporter A1 (ABCA1), ABCA1-lipid cholesterol efflux, ABCA1-stablization, anti-oxidant and anti- inflammatory activity)”, the ABCA1-dependent cholesterol efflux entry is “relatively high-levels of cholesterol efflux” and the “cholesterol efflux from macrophages not induced for ABCA1 (non-specific)” value was “low-levels of cholesterol efflux”.

As for “R14→Q: SEQ ID NO:5 with arginine 14 replaced by glutamine (EVRSKLEEWFAAFQEFFEEFLARLKS; S1 amphipathic alpha-helix polypeptide core sequence selectively binds HDL, high-affinity ligand for ATP- binding cassette transporter A1 (ABCA1), ABCA1-lipid cholesterol efflux, ABCA1-stablization, anti-oxidant and anti-inflammatory activity)”, the “ABCA1-dependent cholesterol efflux at 30 μg/ml” value is listed as “mediated cholesterol efflux in an ABCA1 dependent manner” and the “efficiency of ABCA1 cholesterol efflux” value is “high efficiency”.

Take “E8, 15>D: SEQ ID NO:5 with glutamic acid at positions 8 and 15 replaced with aspartic acid (EVRSKLEDWFAAFRDFFEEFLARLKS; S1 amphipathic alpha-helix polypeptide core sequence selectively binds HDL, high-affinity ligand for ATP- binding cassette transporter A1 (ABCA1), ABCA1-lipid cholesterol efflux, ABCA1-stablization, anti-oxidant and anti-inflammatory activity)”: the ABCA1-dependent cholesterol efflux result is “retained high capacity to stimulate cholesterol efflux in an ABCA1-dependent manner”.
